Assay [1] addresses T1, human C4b (human) (UniProt P0C0L4).
T1 sequence: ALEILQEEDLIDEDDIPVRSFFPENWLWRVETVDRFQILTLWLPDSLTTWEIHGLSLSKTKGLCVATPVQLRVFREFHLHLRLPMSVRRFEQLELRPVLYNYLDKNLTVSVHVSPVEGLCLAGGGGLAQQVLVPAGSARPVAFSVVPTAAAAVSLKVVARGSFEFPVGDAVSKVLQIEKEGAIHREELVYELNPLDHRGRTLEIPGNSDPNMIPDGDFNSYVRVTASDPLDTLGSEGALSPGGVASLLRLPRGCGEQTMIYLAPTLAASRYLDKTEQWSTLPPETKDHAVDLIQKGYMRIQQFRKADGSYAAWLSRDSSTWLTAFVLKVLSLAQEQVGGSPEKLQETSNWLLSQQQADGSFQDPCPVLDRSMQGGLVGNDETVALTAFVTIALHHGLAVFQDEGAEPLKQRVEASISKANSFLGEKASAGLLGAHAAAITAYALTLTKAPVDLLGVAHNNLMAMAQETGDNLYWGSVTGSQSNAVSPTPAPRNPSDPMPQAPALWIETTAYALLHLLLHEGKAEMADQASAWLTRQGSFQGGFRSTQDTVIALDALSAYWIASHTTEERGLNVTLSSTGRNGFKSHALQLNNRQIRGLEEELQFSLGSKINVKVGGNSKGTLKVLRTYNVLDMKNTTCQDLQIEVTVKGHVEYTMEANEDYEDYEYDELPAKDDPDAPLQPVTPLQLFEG

The target of assay [2] is soluble human C3b (human) (UniProt P01024).
For assay [3], the target named is T1, human C4b (human). The source holds these as a separate data set.
The target in assay [4] is soluble human C3b (human) (UniProt P01024). The source holds these as a separate data set.
The target in assay [5] is T2, human C4b (human) (UniProt P0C0L5).
T2 sequence: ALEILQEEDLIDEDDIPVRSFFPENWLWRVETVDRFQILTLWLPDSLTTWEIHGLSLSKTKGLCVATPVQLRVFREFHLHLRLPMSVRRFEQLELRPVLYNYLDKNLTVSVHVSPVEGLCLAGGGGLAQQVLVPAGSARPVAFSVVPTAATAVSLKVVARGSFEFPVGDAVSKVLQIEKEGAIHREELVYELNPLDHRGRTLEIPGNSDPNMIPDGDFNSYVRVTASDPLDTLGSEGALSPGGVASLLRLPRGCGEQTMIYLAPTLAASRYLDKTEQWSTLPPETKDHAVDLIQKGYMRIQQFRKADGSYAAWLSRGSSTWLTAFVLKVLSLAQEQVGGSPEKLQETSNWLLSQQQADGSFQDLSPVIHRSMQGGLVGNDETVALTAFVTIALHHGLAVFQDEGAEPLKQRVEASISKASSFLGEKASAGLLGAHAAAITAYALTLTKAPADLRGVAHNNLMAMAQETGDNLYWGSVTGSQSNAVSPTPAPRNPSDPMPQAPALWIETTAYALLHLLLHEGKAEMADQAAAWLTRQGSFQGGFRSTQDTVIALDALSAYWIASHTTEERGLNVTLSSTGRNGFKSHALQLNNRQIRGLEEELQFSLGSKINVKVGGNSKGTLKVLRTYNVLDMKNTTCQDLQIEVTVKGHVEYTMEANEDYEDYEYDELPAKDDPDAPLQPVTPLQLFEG

Regarding CFI-HSA variant E457L (enzyme), the C4c EC50 (nM) in the assay with human C4b (human) [1] was > 1000 nM. This molecule also had an iC3b EC50 in assay [2] of 51.4 nM. Besides, the C4b Screen Ref Fold (fold of reference) with human C4b (human) [3] came out at 0.14. In addition, the iC3b Screen Ref Fold (fold of reference) in assay [4] is 0.21.
In the same order, the values of CFI-HSA variant E457M (enzyme) are 482 nM, 25.4 nM, 1.6 and 1.05.
In the same order, the values of CFI-HSA variant E457N (enzyme) are 215 nM, 16.3 nM, 4.31 and 0.9.
Take CFI-HSA variant Y408L; E416A (enzyme): the C4c EC50 with human C4b (human) [1] is > 1000 nM. This molecule also gave an iC3b EC50 in assay [2] of 20.8 nM. In addition, the C4b Screen Ref Fold (fold of CFI-HSA wild type) in the assay with human C4b (human) [5] was 0.41. For the same molecule, in assay [4], the iC3b Screen Ref Fold (fold of CFI-HSA wild type) came out at 1.21.
Turning to “CFI-HSA variant Y408L; E457G; N531G; D425K (enzyme)”, the C4c EC50 with human C4b (human) [1] is 13.5 nM. The iC3b EC50 in assay [2] amounted to 4.7 nM. The C4b Screen Ref Fold (fold of CFI-HSA wild type) with human C4b (human) [5] stood at 5.1. Moreover, the iC3b Screen Ref Fold (fold of CFI-HSA wild type) in assay [4] worked out at 0.58.
For “CFI-HSA variant Y408L; E457G; N531G; P535G; P558S (enzyme)” the same measures were 27.9 nM, 9.6 nM, 4.34 and 1.39.
In the same order, the values of “CFI-HSA variant Y408L; E457G; P535G (enzyme)” are 205 nM, 11.7 nM, 1.21 and 0.6.
For “CFI-HSA variant Y408L; E457G; P535G; D425K (enzyme)” the same measures were 46.5 nM, 5.2 nM, 2.13 and 0.04.
On to CFI-HSA variant Y408L; P535G (enzyme), for which, in the assay with human C4b (human) [1], the C4c EC50 was > 1000 nM. This molecule had an iC3b EC50 in assay [2] of 50.9 nM. The C4b Screen Ref Fold (fold of CFI-HSA wild type) with human C4b (human) [5] was 0. In addition, in assay [4], the iC3b Screen Ref Fold (fold of CFI-HSA wild type) turned out to be 0.27.
For “CFI-HSA variant Y408L; P535G; D425K (enzyme)” the same measures were > 1000 nM, 19.7 nM, 0 and 0.56.
CFI-HSA variant Y408N (enzyme) returned a C4c EC50 (nM) in the assay with human C4b (human) [1] of 710 nM. In addition, the iC3b EC50 in assay [2] stood at 64.2 nM. Also, in the assay with human C4b (human) [5], the C4b Screen Ref Fold (fold vs CFI-HSA wild type) came to 0.09. For the same molecule, in assay [4], the iC3b Screen Ref Fold (fold vs CFI-HSA wild type) turned out to be 0.51.
In the same order, the values of CFI-HSA wild type (enzyme) are 299 nM, 28.4 nM, 1 and 1.
For “WT; GGSSGG (SEQ ID NO: 6); CR1(ccp15-17) (enzyme)” the same measures were 53.1 nM, 31.9 nM, 5.25 and 0.04.

B1: WT mouse CFI (enzyme)
chain: RSPSASDLPQEELVDQKCLLQKYTHRSCNKVFCQPWQRCIEGTCICKLPYQCPRAGTPVCAMNGRSYPTYCHQKSFECLHPEIKFSHNGTCAAEGKFNVSLIYGRTKTEGLVQVKLVDQDERMFICKNSWSMAEANVACVDLGFPLGVRDIQGSFNISGNLHINDTECLHVHCRGVETSLAECAFTKRRTELSNGLAGVVCYKQDADFPTSLSFQCVNGKHIPQEKACNGVNDCGDQSDELCCKGCRGNASLCKSGVCIPDQYKCNGEVDCITGEDESRCEEDRQQNIPKGLARSAQGEAEIETEETEMLTPGMDNERKRIKSLLPKLSCGVKRNTHTRRKRVIGGKPANVGDYPWQVAIKDGQRITCGGIYIGGCWILTAAHCVRPSRAHSYQVWTALLDWLKPNSQLGIQTVKRVIVHEKYNGATFQNDIALIEMKMHTGKKECELPNSVPACVPWSPYLFQPNDRCIISGWGRGKDNQKVYSLRWGEVDLIGNCSQFYPDRYYEKEMQCAGTRDGSIDACKGDSGGPLVCEDINNVTYVWGIVSWGENCGKPEFPGVYTRVANYFDWISYHVGRSLVSQHNV
In the case of B1, in the assay with human C4b (human) [1], the C4c EC50 (nM) amounted to 54 nM. Further, the iC3b EC50 in assay [2] is > 500 nM. In addition, the C4b Screen Ref Fold (fold vs CFI-HSA wild type) in the assay with human C4b (human) [5] stood at 6.24. The iC3b Screen Ref Fold (fold vs CFI-HSA wild type) in assay [4] stood at 0.04.

These data come from US20230038638A1, “COMPLEMENT FACTOR I-RELATED COMPOSITIONS AND METHODS” (published 2023).
